Laboratory results: US9958461B2, “Detection of protein to protein interactions” (THE GOVERNING COUNCIL OF THE UNIVERSITY OF TORONTO, priority 2013, dated 2018)

B1: GRB10 (protein, UniProt Q13322 1-594, looked up)
Growth factor receptor-bound …: MALAGCPDSFLHHPYYQDKVEQTPRSQQDPAGPGLPAQSDRLANHQEDDVDLEALVNDMNASLESLYSACSMQSDTVPLLQNGQHARSQPRASGPPRSIQPQVSPRQRVQRSQPVHILAVRRLQEEDQQFRTSSLPAIPNPFPELCGPGSPPVLTPGSLPPSQAAAKQDVKVFSEDGTSKVVEILADMTARDLCQLLVYKSHCVDDNSWTLVEHHPHLGLERCLEDHELVVQVESTMASESKFLFRKNYAKYEFFKNPMNFFPEQMVTWCQQSNGSQTQLLQNFLNSSSCPEIQGFLHVKELGKKSWKKLYVCLRRSGLYCSTKGTSKEPRHLQLLADLEDSNIFSLIAGRKQYNAPTDHGLCIKPNKVRNETKELRLLCAEDEQTRTCWMTAFRLLKYGMLLYQNYRIPQQRKALLSPFSTPVRSVSENSLVAMDFSGQTGRVIENPAEAQSAALEEGHAWRKRSTRMNILGSQSPLHPSTLSTVIHRTQHWFHGRISREESHRIIKQQGLVDGLFLLRDSQSNPKAFVLTLCHHQKIKNFQILPCEDDGQTFFSLDDGNTKFSDLIQLVDFYQLNKGVLPCKLKHHCIRVAL
B2: SNX9 (protein, UniProt Q9Y5X1 1-595, looked up)
Sorting nexin-9: MATKARVMYDFAAEPGNNELTVNEGEIITITNPDVGGGWLEGRNIKGERGLVPTDYVEILPSDGKDQFSCGNSVADQAFLDSLSASTAQASSSAASNNHQVGSGNDPWSAWSASKSGNWESSEGWGAQPEGAGAQRNTNTPNNWDTAFGHPQAYQGPATGDDDDWDEDWDGPKSSSYFKDSESADAGGAQRGNSRASSSSMKIPLNKFPGFAKPGTEQYLLAKQLAKPKEKIPIIVGDYGPMWVYPTSTFDCVVADPRKGSKMYGLKSYIEYQLTPTNTNRSVNHRYKHFDWLYERLLVKFGSAIPIPSLPDKQVTGRFEEEFIKMRMERLQAWMTRMCRHPVISESEVFQQFLNFRDEKEWKTGKRKAERDELAGVMIFSTMEPEAPDLDLVEIEQKCEAVGKFTKAMDDGVKELLTVGQEHWKRCTGPLPKEYQKIGKALQSLATVFSSSGYQGETDLNDAITEAGKTYEEIASLVAEQPKKDLHFLMECNHEYKGFLGCFPDIIGTHKGAIEKVKESDKLVATSKITLQDKQNMVKRVSIMSYALQAEMNHFHSNRIYDYNSVIRLYLEQQVQFYETIAEKLRQALSRFPVM
B3: SOCS6 (protein, UniProt O14544 1-535, looked up)
Suppressor of cytokine …: MKKISLKTLRKSFNLNKSKEETDFMVVQQPSLASDFGKDDSLFGSCYGKDMASCDINGEDEKGGKNRSKSESLMGTLKRRLSAKQKSKGKAGTPSGSSADEDTFSSSSAPIVFKDVRAQRPIRSTSLRSHHYSPAPWPLRPTNSEETCIKMEVRVKALVHSSSPSPALNGVRKDFHDLQSETTCQEQANSLKSSASHNGDLHLHLDEHVPVVIGLMPQDYIQYTVPLDEGMYPLEGSRSYCLDSSSPMEVSAVPPQVGGRAFPEDESQVDQDLVVAPEIFVDQSVNGLLIGTTGVMLQSPRAGHDDVPPLSPLLPPMQNNQIQRNFSGLTGTEAHVAESMRCHLNFDPNSAPGVARVYDSVQSSGPMVVTSLTEELKKLAKQGWYWGPITRWEAEGKLANVPDGSFLVRDSSDDRYLLSLSFRSHGKTLHTRIEHSNGRFSFYEQPDVEGHTSIVDLIEHSIRDSENGAFCYSRSRLPGSATYPVRLTNPVSRFMQVRSLQYLCRFVIRQYTRIDLIQKLPLPNKMKDYLQEKHY
B4: MAPK8IP2 (protein, UniProt Q13387 1-824, looked up)
C-Jun-amino-terminal …: MADRAEMFSLSTFHSLSPPGCRPPQDISLEEFDDEDLSEITDDCGLGLSYDSDHCEKDSLSLGRSEQPHPICSFQDDFQEFEMIDDNEEEDDEDEEEEEEEEEGDGEGQEGGDPGSEAPAPGPLIPSPSVEEPHKHRPTTLRLTTLGAQDSLNNNGGFDLVRPASWQETALCSPAPEALRELPGPLPATDTGPGGAQSPVRPGCDCEGNRPAEPPAPGGTSPSSDPGIEADLRSRSSGGRGGRRSSQELSSPGSDSEDAGGARLGRMISSISETELELSSDGGSSSSGRSSHLTNSIEEASSPASEPEPPREPPRRPAFLPVGPDDTNSEYESGSESEPDLSEDADSPWLLSNLVSRMISEGSSPIRCPGQCLSPAPRPPGEPVSPAGGAAQDSQDPEAAAGPGGVELVDMETLCAPPPPAPAAPRPGPAQPGPCLFLSNPTRDTITPLWAAPGRAARPGRACSAACSEEEDEEDDEEEEDAEDSAGSPGGRGTGPSAPRDASLVYDAVKYTLVVDEHTQLELVSLRRCAGLGHDSEEDSGGEASEEEAGAALLGGGQVSGDTSPDSPDLTFSKKFLNVFVNSTSRSSSTESFGLFSCLVNGEEREQTHRAVFRFIPRHPDELELDVDDPVLVEAEEDDFWFRGFNMRTGERGVFPAFYAHAVPGPAKDLLGSKRSPCWVERFDVQFLGSVEVPCHQGNGILCAAMQKIATARKLTVHLRPPASCDLEISLRGVKLSLSGGGPEFQRCSHFFQMKNISFCGCHPRNSCYFGFITKHPLLSRFACHVFVSQESMRPVAQSVGRAFLEYYQEHLAYACPTEDIYLE
B5: PTPN2 (protein, UniProt P17706 1-415, looked up)
Tyrosine-protein phosphatase …: MPTTIEREFEELDTQRRWQPLYLEIRNESHDYPHRVAKFPENRNRNRYRDVSPYDHSRVKLQNAENDYINASLVDIEEAQRSYILTQGPLPNTCCHFWLMVWQQKTKAVVMLNRIVEKESVKCAQYWPTDDQEMLFKETGFSVKLLSEDVKSYYTVHLLQLENINSGETRTISHFHYTTWPDFGVPESPASFLNFLFKVRESGSLNPDHGPAVIHCSAGIGRSGTFSLVDTCLVLMEKGDDINIKQVLLNMRKYRMGLIQTPDQLRFSYMAIIEGAKCIKGDSSIQKRWKELSKEDLSPAFDHSPNKIMTEKYNGNRIGLEEEKLTGDRCTGLSSKMQDTMEENSESALRKRIREDRKATTAQKVQQMKQRLNENERKRKRWLYWQPILTKMGFMSVILVGAFVGWTLFFQQNAL
B6: PRKCE (protein, UniProt Q02156 1-737, looked up)
Protein kinase C epsilon type: MVVFNGLLKIKICEAVSLKPTAWSLRHAVGPRPQTFLLDPYIALNVDDSRIGQTATKQKTNSPAWHDEFVTDVCNGRKIELAVFHDAPIGYDDFVANCTIQFEELLQNGSRHFEDWIDLEPEGRVYVIIDLSGSSGEAPKDNEERVFRERMRPRKRQGAVRRRVHQVNGHKFMATYLRQPTYCSHCRDFIWGVIGKQGYQCQVCTCVVHKRCHELIITKCAGLKKQETPDQVGSQRFSVNMPHKFGIHNYKVPTFCDHCGSLLWGLLRQGLQCKVCKMNVHRRCETNVAPNCGVDARGIAKVLADLGVTPDKITNSGQRRKKLIAGAESPQPASGSSPSEEDRSKSAPTSPCDQEIKELENNIRKALSFDNRGEEHRAASSPDGQLMSPGENGEVRQGQAKRLGLDEFNFIKVLGKGSFGKVMLAELKGKDEVYAVKVLKKDVILQDDDVDCTMTEKRILALARKHPYLTQLYCCFQTKDRLFFVMEYVNGGDLMFQIQRSRKFDEPRSRFYAAEVTSALMFLHQHGVIYRDLKLDNILLDAEGHCKLADFGMCKEGILNGVTTTTFCGTPDYIAPEILQELEYGPSVDWWALGVLMYEMMAGQPPFEADNEDDLFESILHDDVLYPVWLSKEAVSILKAFMTKNPHKRLGCVASQNGEDAIKQHPFFKEIDWVLLEQKKIKPPFKPRIKTKRDVNNFDQDFTREEPVLTLVDEAIVKQINQEEFKGFSYFGEDLMP

Legend:
[1] = target: T1, EGFR-Wt (Homo sapiens, UniProt P00533); experiment: MaMTH EGFR-interactor screen, lentiviral preys against EGFR-wildtype bait (interaction score); type: cell-based; details: MaMTH interaction score of prey with EGFR-Wt bait, mean
T1 construct: with the advantage of testing full-length integral membrane proteins; (GGGGS)2 linker-Cub (human ubiquitin aa 35-76)-GAL4(1-147)-mNFkB(364-550) (C); expressed in transfected cells
Outline: (§1)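 Interaction score is the luciferase fold-change versus averaged negative controls (Fabp5, Pex19, Pex7, GABBR2), with >1 called interacting. Luciferase was measured 24 h after triplicate bait transfection. This followed single-copy prey transduction (MOI ~0.3-0.4) of GAL4UAS-luciferase HEK293T cells and ≥48 h puromycin selection.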

[2] = system: EGFR-Wt; experiment: as above; type: cell-based, human; details: ratio of EGFR-Wt mean to EGFR-L858R mean interaction score
Outline: as §1

[3] = target: T2, EGFR-L858R (Homo sapiens, UniProt P00533, L858R); experiment: MaMTH EGFR-interactor screen, lentiviral preys against EGFR-L858R bait (interaction score); type: cell-based; details: MaMTH interaction score of prey with EGFR-L858R bait
T2 construct: with the advantage of testing full-length integral membrane proteins; (GGGGS)2 linker-Cub (human ubiquitin aa 35-76)-GAL4(1-147)-mNFkB(364-550) (C); expressed in transfected cells
Outline: as §1

Molecule	EGFR-Wt mean [1]	Wt/L858R [2]	EGFR-L858R mean [3]
B1	3.14	0.90	3.49
B2	1.67	0.88	1.89
B3	1.22	0.21	5.90
B4	1.52	0.93	1.63
B5	1.27	0.93	1.36
B6	6.30	0.93	6.77
